In assay [1] the target is T1, NEM-huIL-18 (recombinant mature human IL-18 treated with N-ethyl maleiamide) (human, UniProt Q14116 37-193, cysteines protected with N-ethyl maleiamide (NEM)). The assay can be described thus: cell-based or functional assay.
Assay [2] has as its target T1, NEM-huIL-18 (recombinant mature human …). The assay can be described thus: Biacore, NEM-cys protected rhuIL-18.
Assay [3] has the same target. The assay can be described thus: cell-based or functional assay. The source holds these as a separate data set.
The target of assay [4] is T2, natural human IL-18 (endogenous, human whole blood) (human, UniProt Q14116 37-193). The experiment in a line: cell-based or functional assay.
The target of assay [5] is T3, 125I labeled rhu-IL-18 (human, UniProt Q14116 37-193, NEM-treated cysteines; 125I label on lysine residues). The experiment in a line: RBA: inhibition of 125I-rhu-IL-18 binding to IL-18Rαβ on KG-1 cells.
The target in assay [6] is recombinant mature human IL-18 (preparation not specified) (human, UniProt Q14116 37-193). The assay can be described thus: cell-based or functional assay.
Assay [7] has as its target T2, natural human IL-18 (endogenous, human …). The assay can be described thus: cell-based or functional assay. The source holds these as a separate data set.
The target in assay [8] is T3, 125I labeled rhu-IL-18. The experiment in a line: RBA: inhibition of 125I-rhu-IL-18 binding to IL-18Rαβ on KG-1 cells. This is another data set of the same source.

Several values for one entry are separate records, joined by “and”; a condition that tells them apart may be missing. Identical values can stand only once. Like-named read-outs stand apart in the source and are kept apart here.

For orientation: Kd means the free concentration of one partner at which half of the binding sites on the other are occupied at equilibrium, for simple one-to-one binding. The term IC50 denotes the midpoint of a concentration-inhibition curve. A low value points to higher potency.

B1: 351 (antibody, V domains shown)
VH: ZVQLVESGGGVVQPGRSLRLSCAASGFTFSHYGMHWVRQAPGKGLEWVAVISYDGRNKYYVDSVKGRFTISRDNSKNTLYLQMNSLRAEDTAVFYCAREKGGSGWPPFYYYYGMDVWGQGTTVTVSS
VL: DIVMTQTPLSLSVTPGQPASISCKSSQNLLYSDGETYLCWYLQKPGQPPQLLIYEVSNRFSGVPERFSGSGSGTDFTLKISRVEAEDVGIYYCMQNVQLPLTFGGGTRVEIKR
As to B1, the “KG-1 Assays (IC50, M), NEM-rhuIL-18” value in assay [1] was 2e-10 M.

B2: 435 (antibody, V domains shown)
VH: ZLQLQESGPGLVKPSETLSLTCTVSGGSIDSRIYYWGWIRQPPGKGLEWIGSIYYRGSTYYNPSLKSRVTISVDTPKNQFSLKLNSVTAADTAVYYCAREDSSAWVFDYWGQGTLATVSS
VL: EIVLTQSPGTLSLSPGERATLSCRASQSVRNNYLNWYQQKPGQAPRLLIYGAFSRATGIPDRFSGSGSGTDFTLTISSLEPEDFVVYYCQQYGNSIDSFGQGTKLEINR
For B2, the “KG-1 Assays (IC50, M), NEM-rhuIL-18” value in assay [1] is 8e-10 M and 7e-10 M and 4e-10 M.

B3: 2.13.1 (antibody, V domains shown)
VH: ZVQLQESGPGLVTPSQTLSLTCTVSGGSISSGGHYWTWIRQHPGKGLEWIGYIYYSGSTYYNPSLKSRLTISVDTSKNQFSLKLSSVAAADTAVYYCARDRGGSGSYWDYWGQGTLVTVSS
VL: EIVLTQSPGTLSLSPGERATLSCRGSRSVSSGYLAWYQQKPGQAPRLLIYGVSIRATGIPDRFSGSGSGTDFTLTISRLEPEDFAVYYCQQYHGSPLTFGGGTKVEIKR
On to B3, for which the “KG-1 Assays (IC50, M), NEM-rhuIL-18” value in assay [1] was 2e-10 M and 1e-10 M and 7e-11 M.

B4: 2.13.1(E)wtg1 (antibody, V domains shown)
VH: EVQLQESGPGLVTPSQTLSLTCTVSGGSISSGGHYWTWIRQHPGKGLEWIGYIYYSGSTYYNPSLKSRLTISVDTSKNQFSLKLSSVAAADTAVYYCARDRGGSGSYWDYWGQGTLVTVSS
VL: EIVLTQSPGTLSLSPGERATLSCRGSRSVSSGYLAWYQQKPGQAPRLLIYGVSIRATGIPDRFSGSGSGTDFTLTISRLEPEDFAVYYCQQYHGSPLTFGGGTKVEIKR
Regarding B4, the Kd in assay [2] was determined as 200 pM. In assay [3], the “KG-1 (IC50, nM)” value came out at 0.12 nM. In addition, the “WBA (IC50, nM)” value in assay [4] is 2 nM. This molecule came in with an IC50 in the assay with 125I labeled rhu-IL-18 [5] of 200 pM.

B5: 215 (antibody, V domains shown)
VH: ZVQLQESGPGLVKPSQTLSLTCTVSGGSINSGDYYWSWIRQHPGKGLEWIGHISYRGTTYYNPSLKSRVTISVDTSKNQFSLKLSSVTAADTAVYCCARDRGGGFFDLWGRGTLVTVSS
VL: EIVLTQSPGTLSLSPGERATLSCRASRSLSSGYLAWYQQKPGQAPRLLIYGASIRATGIPDRFSGSGSATDFTLTISRLEPEDFAVYYCQQYNYSPLTFGGGTRVEINR
As to B5, in assay [1], the “KG-1 Assays (IC50, M), NEM-rhuIL-18” value was 1e-10 M and 3e-10 M.

B6: 413 (antibody, V domains shown)
VH: ZTQLQESGPGLVKPSETLSLTCTVSGGSISSRVYYWGWIRQPPGKGLEWIGSIYYSGSTYYSPSLKSRVTISVDTSKNQFSLKLSSVTAADTAIYYCAREDSSAWVFEHWGQGTLVTVSS
VL: EIVLTQSPDTLSLSPGERATLSCRASQILSRNYLAWYQQKPGQAPRLLIYGISIRATGIPDRFSGSGSGADFTLTINRLEPEDFAVYYCQHYDNSLCSFGQGTKLEVKR
As to B6, the “KG-1 Assays (IC50, M), NEM-rhuIL-18” value in assay [1] was 1e-09 M and 7e-10 M.

B7: IL-18BP-Fc (Fc fusion, UniProt O95998 31-194, looked up, not shown: a dimerising Fc or GST)
chain: TPVSQTTTAATASVRSTKDPCPSQPPVFPAAKQCPALEVTWPEVEVPLNGTLSLSCVACSRFPNFSILYWLGNGSFIEHLPGRLWEGSTSRERGSTGTQLCKALVLEQLTPALHSTNFSCVLVDPEQVVQRHVVLAQLWAGLRATLPPTQEALPSSHSSPQQQG
Turning to B7, in assay [6], the “KG-1, Neutralization Potency in vitro (IC50, nM)” value amounted to 0.03 nM. The “WBA, Neutralization Potency in vitro (IC50, nM)” value in assay [7] was found to be 5.7 nM. Also, the IC50 with 125I labeled rhu-IL-18 [8] turned out to be 1000 pM.

B8: 2.5.1 (antibody, V domains shown)
VH: ZVQLVQSGTEVKKPGESLKISCKGSGYTVTSYWIGWVRQMPGKGLEWMGFIYPGDSETRYSPTFQGQVTISADKSFNTAFLQWSSLKASDTAMYYCARVGSGWYPYTFDIWGQGTMVTVSS
VL: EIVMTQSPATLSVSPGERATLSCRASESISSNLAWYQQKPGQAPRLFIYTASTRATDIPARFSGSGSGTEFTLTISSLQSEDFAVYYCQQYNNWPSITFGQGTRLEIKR
For the molecule B8, the “KG-1 Assays (IC50, M), NEM-rhuIL-18” value in assay [1] was 3e-10 M and 4e-10 M.

Values taken from patent publication US20050147610A1 (AbbVie / Abbott, published 2005).
